Measurements published in patent US20230364000A1, “COMPOSITIONS COMPRISING COMBINATIONS OF COLLAGEN OR ELASTIN POLYPEPTIDES WITH ACTIVE INGREDIENTS AND METHODS OF USING SAME” (Geltor, Inc., priority 2020, published 2023).

Experiments:
[1] = test system: human primary fibroblasts; test: Fibroblast collagen type I protein secretion (pro-collagen type I C-peptide ELISA); assay type: cell-based; details: 0.03%; 48 hours; compared with untreated cells or cells treated with retinol; FIG. 1
Procedure: A series of in vitro experiments were conducted to assess the effects of a truncated human type 21 collagen on human skin fibroblasts and keratinocytes. In a first experiment, human primary fibroblasts were evaluated for collagen type I protein secretion. Fibroblasts were cultured with 0.03% of a polypeptide according to SEQ ID NO: 16 for 48 hours. Culture supernatants were analyzed by Enzyme Linked Immunosorbent Assay (ELISA) for pro-collagen type I C-peptide, which is a readout for total secreted collagen type I protein.

[2] = test system: facial skin; test: Facial wrinkles, clinical study of Example 5; assay type: in vivo, human; details: topical facial serum 0.1%, n=15, FIG. 9
Text: (§1) In a clinical study (n=15 subjects), subjects used a topical facial serum containing 0.1% of a polypeptide of SEQ ID NO: 16 for 8 weeks, after using a protein-free base facial serum for a 1-week washout period.

[3] = test system: facial skin; test: SIAscope dermal collagen, clinical study of Example 3; assay type: in vivo, human; details: 0.1% w/w topical formulation, Week 2
Procedure: (§2) A clinical study using human subjects to determine the effects of a topical skincare product containing truncated human type 21 collagen (SEQ ID NO: 16) is performed. The research is performed according to U.S. and International standards of Good Clinical Practice (FDA and ICH guidelines) and applicable government regulations.
(§3) A base formulation (control formulation) made of water, olive oil glycereth-8 esters, glycerin, coconut alkanes, hydroxyethyl acrylate/sodium acryloyldimethyl taurate copolymer, pentylene glycol, disodium EDTA, caprylyl glycol, chlorphenesin, phenoxyethanol is prepared. A formulation containing the truncated human type 21 collagen is prepared by adding sufficient collagen to prepare a topical formulation containing 0.1% w/w collagen.
The COSMETRICS™ SIAScope (Astron Clinica, Toft, UK) is a non-invasive optical skin imaging instrument using Spectrophotometric Intracutaneous Analysis (SIA), or chromophore mapping. The technique is based on a unique combination of dermatoscopy and contact remittance spectrophotometry. The hardware consists of a hand-held imaging probe attached to a laptop computer. The unit is placed in contact with the skin surface and high-intensity LED's illuminate the skin as discreet wavelengths of 400 to 1000 nm, spanning the visible spectrum and a small range of the near infrared spectrum. A digital image is captured for each wavelength. Three parametric chromophore maps are retrieved up to 2 mm in depth and 11 mm in circumference, one for each of the following parameters: epidermal melanin, dermal hemoglobin and dermal collagen.
For the purposes of this study, dermal collagen will be measured on the left or right cheek, per a prepared randomization code, at baseline and at weeks 2, 4, and 8. Assessment location will be recorded on a face map for each subject for consistency of measurements between visits.
(§4) Improvements in skin hydration, firmness, and elasticity were statistically significant.

[4] = test system: Human full-thickness skin equivalents (MatTek Epiderm FT co-culture tissue models); test: Elastin production in human full-thickness skin equivalents (ELISA); assay type: cell-based; details: polypeptide 0.1% w/w, retinol (10, unit not given), ascorbic acid 2% w/w, FIG. 20
Text: The combination of the truncated human type 21 collagen polypeptide with retinol increased elastin production by 45% relative to untreated control. This appeared to be a synergistic effect as treatment with truncated human type 21 collagen polypeptide alone increased elastin production by 20% and treatment with retinol alone increased elastin production by 17%. The combination of the truncated human type 21 collagen polypeptide with ascorbic acid increased elastin production by 33% relative to untreated control. This appeared to be a synergistic effect as treatment with truncated human type 21 collagen polypeptide alone increased elastin production by 20% and treatment with ascorbic acid alone increased elastin production by 5%.

[5] = test system: Human full-thickness skin equivalents (MatTek Epiderm FT co-culture tissue models); test: Fibronectin production in human full-thickness skin equivalents (ELISA); assay type: cell-based; details: polypeptide 0.1% w/w, FIG. 19
[6] = Oxygen radical absorbance capacity (ORAC) assay, cell-free; assay type: biochemical; details: 0.1% solution
Procedure: The antioxidant potential of a polypeptide of SEQ ID NO: 16 was assessed using the oxygen free radical absorbance capacity (ORAC) assay. The ORAC assay is a cell-free assay that uses a fluorescent readout to measure a product's antioxidant capacity. Data is reported in Trolox (Vitamin E) equivalents.
A polypeptide of SEQ ID NO: 5 was also evaluated in the ORAC assay.
An oxygen radical absorbance capacity (ORAC) assay was performed to analyze the anti-oxidative capacity of a polypeptide according to SEQ ID NO: 52. The ORAC assay is a cell-free assay that uses a fluorescent readout to measure anti-oxidative capacity. Data is reported in Trolox (Vitamin E) equivalents (TEs).

[7] = test system: facial skin; test: SIAscope facial skin collagen content, clinical study of Example 5; assay type: in vivo, human; details: topical facial serum 0.1%, n=15, FIG. 7
Text: as §1, with “period. Topical application of a polypeptide of SEQ ID NO: 16 was associated with increased skin collagen content, as measured by a SIAscope.” for “period.”

[8] = test system: facial skin; test: Corneometer skin hydration, clinical study of Example 3; assay type: in vivo, human; set-up: key to Corneometer Mean Percent Improvement From BL mean: NI = No Improvement; details: 0.1% w/w topical formulation; for Corneometer Mean ± SD: n 14, baseline 42.45 ± 10.06
Procedure: as §2, §3
The corneometer CM 820 (Courage+Khazaka, Germany) measures the relative degree of hydration of the skin surface by applying an alternating current to the skin with a closely spaced pair of electrodes and measuring the capacitance. Changes in water content of the skin change the conductance of the capacitive circuit.
The corneometer is able to detect slight changes in the hydration level reproducibly with a measurement time of only about one second. The measurement depth is small (approximately 10-20 μm of stratum corneum) which ensures assessment is not influenced by deeper skin layers.
All subjects undergo corneometer measurements of their face at baseline, immediately post-initial-application, and at weeks 2, 4, and 8. Measurements will be taken in triplicate and averaged for each time point. Measurement location is recorded on a face map for assessment consistency at each time point.
as §4

[9] = test system: human primary keratinocytes; test: IL-la ELISA in UVB-irradiated keratinocytes; assay type: cell-based; details: 40 mJ/cm^2 UVB, then 0.1% for 24 hours; compared to untreated UVB-irradiated keratinocytes; FIG. 3
Procedure: Human primary keratinocytes were irradiated with 40 mJ/cm^2 UVB light, and then treated with 0.1% of a polypeptide of SEQ ID NO: 16 for 24 hours. Levels of the pro-inflammatory cytokines IL-la were determined by ELISA.

B1: SEQ ID NO: 16: truncated human collagen type 21 alpha 1 without the DsbA secretion tag, recombinantly expressed in E. coli (protein)
chain: AGFPGLPGPAGEPGRHGKDGLMGSPGFKGEAGSPGAPGQDGTRGEPGIPGFPGNRGLMGQKGEIGPPGQQGKKGAPGMPGLMGSNGSPGQPGTPGSKGSKGEPGIQGMPGASGLKGEPGATGSPGEPGYMGLPGIQGKKGDKGNQGEKGIQGQKGENGRQGIPGQQGIQGHHGAKGERGEKGEPGVR
With B1 the “secreted collagen type I (pro-collagen type I C-peptide)” value [1] was “higher levels”, the facial wrinkles ([2]; 4 weeks vs baseline) was “reduction” and the facial wrinkles ([2]; 8 weeks vs baseline) was “reduction”. For the same molecule, the “SIAscope Collagen Mean Percent Improvement From BL mean” value [3] was 6.72%, the “SIAscope Collagen Percent of Subjects Showing Improvement From BL” value [3] was 78.6% and the “SIAscope Collagen Mean ± SD” value ([3]; n 14, baseline 238.95 ± 11.60, P-value 0.004*) was 254.89 ± 19.35. For the same molecule, the “increase of elastin production relative to untreated control” value ([4]; day 2 supernatant) was 20%, the “production of elastin as compared to untreated cells” value ([4]; each agent alone, day 2, hyaluronic acid 0.1% w/w) was “increased production” and the “increase of fibronectin production relative to untreated control” value ([5]; day 4 supernatant, hyaluronic acid 0.1% w/w (low molecular weight, 15-40 kDa)) was 67%. For the same molecule, the “production of fibronectin as compared to untreated cells” value ([5]; each agent alone, day 4, retinol (10, unit not given), ascorbic acid 2% w/w, hyaluronic acid 0.1% w/w) was “increased production”, the “antioxidant properties, Trolox (Vitamin E) equivalents” value [6] was 190 μM Trolox and the skin collagen content ([7]; 2 weeks vs baseline) was “increased”. For the same molecule, the skin collagen content ([7]; 8 weeks vs baseline) was “increased”, the “Corneometer Mean Percent Improvement From BL mean” value ([8]; Immediate) was 36.69% and the “Corneometer Percent of Subjects Showing Improvement From BL” value ([8]; Immediate) was 100%. For the same molecule, the “Corneometer Mean ± SD” value ([8]; Immediate, P-value <0.001*) was 57.22 ± 12.47, the “Corneometer Mean Percent Improvement From BL mean” value ([8]; Week 2) was “NI” and the “Corneometer Percent of Subjects Showing Improvement From BL” value ([8]; Week 2) was 14.3%. The “Corneometer Mean ± SD” value ([8]; Week 2, P-value 0.001** (significant worsening)) was 35.71 ± 10.77 and the “levels of IL-la” value [9] was “lower levels”.
